Numbering of substitutions follows the chain as printed.
T1: TfR2 (transferrin receptor 2) (UniProt Q9UP52 105-801, limits assumed)
T1 sequence (looked up): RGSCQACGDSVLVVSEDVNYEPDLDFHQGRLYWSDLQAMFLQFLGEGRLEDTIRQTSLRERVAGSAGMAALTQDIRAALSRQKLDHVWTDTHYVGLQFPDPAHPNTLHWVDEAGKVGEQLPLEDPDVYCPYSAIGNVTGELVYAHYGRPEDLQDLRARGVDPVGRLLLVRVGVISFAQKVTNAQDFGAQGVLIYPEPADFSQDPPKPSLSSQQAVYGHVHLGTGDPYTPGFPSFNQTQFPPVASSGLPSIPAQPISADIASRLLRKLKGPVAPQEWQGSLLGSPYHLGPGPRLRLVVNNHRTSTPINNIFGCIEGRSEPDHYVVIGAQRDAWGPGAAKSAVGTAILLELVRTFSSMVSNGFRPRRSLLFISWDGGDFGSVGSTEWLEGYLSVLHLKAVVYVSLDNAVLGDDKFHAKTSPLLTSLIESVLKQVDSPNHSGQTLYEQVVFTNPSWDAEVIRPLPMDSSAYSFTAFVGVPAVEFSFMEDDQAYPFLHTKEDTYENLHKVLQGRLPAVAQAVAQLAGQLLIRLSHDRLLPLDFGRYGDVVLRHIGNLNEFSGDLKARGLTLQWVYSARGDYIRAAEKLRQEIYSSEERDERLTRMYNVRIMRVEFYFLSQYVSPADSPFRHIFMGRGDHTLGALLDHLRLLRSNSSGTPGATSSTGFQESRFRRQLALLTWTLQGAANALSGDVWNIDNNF

B1: 13E4-Variant 9ii (antibody, human IgG1, kappa, L234A L235A)
heavy: QVQLVQSGAEVKKPGASVKVSCKASGYTFTNYWMHWVRQAPGQGLEWMGEINPINGRSNYAQKFQGRVTLTVDTSISTAYMELSRLRSDDTAVYYCARGTRAMHYWGQGTLVTVSSASTKGPSVFPLAPSSKSTSGGTAALGCLVKDYFPEPVTVSWNSGALTSGVHTFPAVLQSSGLYSLSSVVTVPSSSLGTQTYICNVNHKPSNTKVDKRVEPKSCDKTHTCPPCPAPEAAGGPSVFLFPPKPKDTLMISRTPEVTCVVVDVSHEDPEVKFNWYVDGVEVHNAKTKPREEQYNSTYRVVSVLTVLHQDWLNGKEYKCGVSNKALPAPIEKTISKAKGQPREPQVYTLPPSREEMTKNQVSLTCLVKGFYPSDIAVEWESNGQPENNYKTTPPVLDSDGSFFLYSKLTVDKSRWQQGNVFSCSVMHEALHNHYTQKSLSLSPG
light: DIQMTQSPSSLSASVGDRVTITCRTSENIYNNLAWYQQKPGKAPKLLIYAATNLAEGVPSRFSGSGSGTDYTLTISSLQPEDFATYYCQHFWGTPLTFGGGTKVEIKRTVAAPSVFIFPPSDEQLKSGTASVVCLLNNFYPREAKVQWKVDNALQSGNSQESVTEQDSKDSTYSLSSTLTLSKADYEKHKVYACEVTHQGLSSPVTKSFNRGEC
notes: Humanized hIgG1 with Fc mutations; also called hIgG1 TfR-Var9ii
B2: 13E4-Variant 2i (antibody, human IgG1, kappa, L234A L235A)
heavy: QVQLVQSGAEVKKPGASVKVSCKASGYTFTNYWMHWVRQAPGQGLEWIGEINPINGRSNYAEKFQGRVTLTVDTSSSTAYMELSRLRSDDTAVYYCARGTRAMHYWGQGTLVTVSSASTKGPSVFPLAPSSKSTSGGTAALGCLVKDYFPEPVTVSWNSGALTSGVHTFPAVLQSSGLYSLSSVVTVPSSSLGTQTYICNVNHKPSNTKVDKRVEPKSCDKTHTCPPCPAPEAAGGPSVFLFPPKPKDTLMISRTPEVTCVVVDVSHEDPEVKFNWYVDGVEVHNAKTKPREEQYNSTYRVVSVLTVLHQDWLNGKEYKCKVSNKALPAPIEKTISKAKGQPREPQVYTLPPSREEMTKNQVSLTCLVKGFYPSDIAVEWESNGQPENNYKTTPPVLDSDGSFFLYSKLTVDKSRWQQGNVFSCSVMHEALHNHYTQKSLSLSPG
light: B1 light with A43S, E56D
notes: Humanized hIgG1 with Fc mutations; also called hIgG1 TfR-Var2i
B3: 13E4-Variant 2ii (antibody, human IgG1, kappa, L234A L235A)
heavy: B1 heavy with M48I, Q62E, I76S
light: B1 light with A43S, E56D
notes: Humanized hIgG1 with Fc mutations; also called hIgG1 TfR-Var2ii
B4: 13E4-Variant 2iii (antibody, human IgG1, kappa, L234A L235A)
heavy: B1 heavy with M48I, Q62E, I76S, G321K, L327R
light: B1 light with A43S, E56D
notes: Humanized hIgG1 with Fc mutations; also called hIgG1 TfR-Var2iii
B5: 13E4-Variant 9i (antibody, human IgG1, kappa, L234A L235A)
heavy: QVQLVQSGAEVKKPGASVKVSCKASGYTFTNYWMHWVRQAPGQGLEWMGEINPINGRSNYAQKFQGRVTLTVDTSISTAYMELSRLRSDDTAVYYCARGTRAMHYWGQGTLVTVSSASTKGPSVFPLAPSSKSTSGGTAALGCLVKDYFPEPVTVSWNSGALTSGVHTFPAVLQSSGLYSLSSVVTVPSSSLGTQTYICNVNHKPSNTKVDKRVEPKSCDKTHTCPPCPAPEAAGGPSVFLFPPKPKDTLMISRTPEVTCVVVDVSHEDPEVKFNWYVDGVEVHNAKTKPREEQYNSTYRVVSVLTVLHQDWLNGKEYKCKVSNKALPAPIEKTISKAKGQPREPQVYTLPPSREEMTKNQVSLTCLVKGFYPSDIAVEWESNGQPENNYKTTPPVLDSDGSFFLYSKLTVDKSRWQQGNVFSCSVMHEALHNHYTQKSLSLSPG
light: B1 light
notes: Humanized hIgG1 with Fc mutations; also called hIgG1 TfR-Var9i

biological target: T2, recombinant human transferrin receptor protein (Sino Biological 11020-H07H) (human, UniProt P02786 89-760); assay: ELISA on plate-coated recombinant human TfR1 (CD71); fit: specific binding with Hill slope (row labels blank in the lower block; row taken by the order Bmax, h, Kd)
T2 construct: Bought protein coated on ELISA plates; also called recombinant human TfR1; human TfR1
Description: (§1) Half-well high-binding 96-well plates (Costar #3690) were coated with recombinant human transferrin receptor protein (Sino Biological 11020-H07H) or recombinant cyno transferrin receptor protein (Sino Biological 90253-C07H) at 1 ng/μL in PBS (Gibco 14190) and incubated overnight at 4° C. Plates were washed four times with 100 μL of Tris buffered saline+Tween (20×TBST, Cell Signaling 9997S). 100 μL of Superblock (ThermoFisher PI-37535) was added to each well and incubated for 1 hour at room temperature. The wash step was repeated before the addition of the samples. Samples were added at concentrations up to 10 nM, 50 μL/well. Plates were incubated for another hour at room temp and wash step repeated. Secondary antibody (Peroxidase AffiniPure Goat Anti-Human IgG, Fcγ Fragment Specific, Jackson Immunoresearch, 109-035-098) was diluted 1:5000 in Superblock and 50 μL/well added. Plates were incubated for 1 hour at room temperature and washed one more time. Binding was measured by the addition of 50 μL of 1-Step™ Ultra TMB-ELISA (ThermoFisher, 34028), incubated for 5 minutes, and the reaction was stopped with the addition of 25 μL of Stop Solution 2N sulfuric Acid (R&D Systems DY994). Absorbance was measured at 450 nm, with reference wavelength 570 nm subtracted. Binding constants were determined using GraphPad Prism Specific Binding with Hill Slope.

T2 sequence (P02786 89-760 limits assumed): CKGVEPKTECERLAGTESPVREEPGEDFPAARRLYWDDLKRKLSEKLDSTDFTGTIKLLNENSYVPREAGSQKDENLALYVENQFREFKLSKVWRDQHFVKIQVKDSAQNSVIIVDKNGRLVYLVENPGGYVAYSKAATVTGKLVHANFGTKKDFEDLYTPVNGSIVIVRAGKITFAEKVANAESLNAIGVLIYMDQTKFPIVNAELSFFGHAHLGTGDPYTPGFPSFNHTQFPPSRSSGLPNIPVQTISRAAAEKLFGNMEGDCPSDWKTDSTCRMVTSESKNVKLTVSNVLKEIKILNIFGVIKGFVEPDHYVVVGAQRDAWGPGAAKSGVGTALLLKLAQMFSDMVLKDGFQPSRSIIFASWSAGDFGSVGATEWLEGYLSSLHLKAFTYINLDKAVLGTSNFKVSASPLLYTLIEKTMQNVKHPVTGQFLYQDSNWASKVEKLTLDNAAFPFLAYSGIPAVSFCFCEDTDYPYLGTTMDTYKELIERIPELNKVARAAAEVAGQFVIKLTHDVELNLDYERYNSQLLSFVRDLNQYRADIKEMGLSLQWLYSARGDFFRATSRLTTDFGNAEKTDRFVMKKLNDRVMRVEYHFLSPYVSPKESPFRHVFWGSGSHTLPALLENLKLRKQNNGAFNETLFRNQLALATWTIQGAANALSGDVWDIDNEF

| Binder | Bmax [% max binding] | Kd [pM] | h |
| --- | --- | --- | --- |
| B1 | 95.2 | 8.23 | 1.57 |

biological target: T3, hTfR (human transferrin receptor, source and construct not stated) (human, UniProt P02786 89-760, limits assumed); assay: ELISA; ratio of the Kd on transferrin-captured hTfR to the Kd on directly coated hTfR
Description: (§2) Antibodies were biotinylated using 50 fold molar excess of EZ-Link No weigh NHS-Biotin (Thermo Scientific A39256) following manufacturer's instructions. Half-well high-bind plates (Costar #3690) were coated with 500 ng/mL purified human holo-transferrin (R&D Systems 2914-HT) in PBS at 4° C. overnight. For comparison, plates were coated directly with hTfR. Plates were washed four times with 100 μL of Tris buffered saline+Tween (20×TBST, Cell Signaling 9997S). 100 μL of Superblock (ThermoFisher PI-37535) was added to each well and incubated for 1 hour at room temperature. The wash step was repeated before the addition of the hTfR (200 ng/mL in 25 μl) to the transferrin plates, or Superblock to the hTfR plates, and incubated for 30 minutes. Biotinylated antibodies were diluted to 20 nM for the high concentration and added to the plates with 3-fold serial dilution. 25 μl/well was added to the 25 μl already in the plate. Plates were incubated for 1 hour, and wash step was repeated. Streptavidin-HRP (R&D Systems DY998) was added following recommended dilution on the package insert, and a final wash step was done. Binding was measured by the addition of 50 μL of 1-Step™ Ultra TMB-ELISA (ThermoFisher, 34028), incubated for 5 minutes, and the reaction was stopped with the addition of 25 μL of Stop Solution 2N sulfuric Acid (R&D Systems DY994). Absorbance was measured at 450 nm, with reference wavelength 570 nm subtracted. Binding constants were determined using GraphPad Prism Specific Binding with Hill Slope. Change in antibody binding constants in the presence versus absense of transferrin is considered relative to the commercially available antibody which is known to have an overlapping epitope with transferrin (AF2474, R&D Systems).

T3 sequence (P02786 89-760 limits assumed): as above

| Binder | Kd(Tf+TfR)/Kd(TfR) |
| --- | --- |
| B2 | 2.8 |
| B3 | 2.5 |
| B4 | 2.1 |
| B5 | 2.2 |
| B1 | 2.6 |

biological target: T3, hTfR (human transferrin receptor, …); assay: ELISA, biotinylated antibody on hTfR captured by plate-coated human holo-transferrin (Tf+TfR); fit: specific binding with Hill slope
Description: as §2

| Binder | Bmax [A450] | Kd [nM] | h |
| --- | --- | --- | --- |
| B2 | 3.48 | 0.0678 | 1.49 |
| B3 | 3.53 | 0.0578 | 1.45 |
| B4 | 3.47 | 0.0522 | 1.61 |
| B5 | 3.53 | 0.0559 | 1.45 |
| B1 | 3.51 | 0.057 | 1.48 |

biological target: T3, hTfR (human transferrin receptor, …); assay: ELISA, biotinylated antibody on hTfR captured by plate-coated HFE (HFE+TfR); fit: specific binding with Hill slope

| Binder | Bmax [A450] | Kd [nM] | h |
| --- | --- | --- | --- |
| B2 | 3 | 0.273 | 1.63 |
| B3 | 3.15 | 0.227 | 1.64 |
| B4 | 2.66 | 0.289 | 1.26 |
| B5 | 2.79 | 0.341 | 1.37 |
| B1 | 3 | 0.229 | 1.36 |

biological target: T3, hTfR (human transferrin receptor, …); assay: ELISA; ratio of the Kd on HFE-captured hTfR to the Kd on directly coated hTfR

| Binder | Kd(HFE+TfR)/Kd(TfR) |
| --- | --- |
| B2 | 11.1 |
| B3 | 9.9 |
| B4 | 11.9 |
| B5 | 13.6 |
| B1 | 10.4 |

biological target: T1, TfR2 (transferrin receptor 2); assay: A450 plate assay on TfR2 (method not described in the text)

| Binder | binding result |
| --- | --- |
| B2 | no binding (tested: 1000 nM) |
| B3 | no binding (tested: 1000 nM) |
| B4 | no binding (tested: 1000 nM) |
| B5 | no binding (tested: 1000 nM) |
| B1 | no binding (tested: 1000 nM) |

biological target: T3, hTfR (human transferrin receptor, …); assay: SPR (BioRad ProteOn XPR36), mAb captured on Protein A, hTfR as analyte, 25 C
Description: The binding kinetics of nine exemplary humanized anti-TfR antibodies and the parent chimeric antibody were characterized. Studies were run on a BioRad ProteOn XPR36 optical biosensor using a GLM sensor chip coated with Protein A for mAb capture. Running buffer included 10 mM EPES, 150 mM NaCl, pH 7.4 with 0.05 tween-20 with 0.2 mg/ml BSA. Data were collected at 25 degrees C. All mAbs were diluted into running buffer to 2 ug/ml based on the stock concentration provided. Each was then captured for 40 seconds over a Protein A surface.
hTfR (100 ug) was dissolved into […] of water to yield a 4.3 uM stock concentration. hTfR was dilted to 43 nM as the highest concentration and tested in a 3 fold dilution series. hTfR was injected at 200 ul/min for 2 minutes followed by a one-hour dissociation phase.

| Binder | Kd [pM] | koff [s⁻¹] | kon [M⁻¹ s⁻¹] |
| --- | --- | --- | --- |
| B2 | 0.43 | 3.9e-07 | 913000 |
| B3 | 0.49 | 4.3e-07 | 880000 |
| B4 | 0.95 | 8.2e-07 | 862000 |
| B5 | 1.21 | 1.02e-06 | 843000 |
| B1 | 2.31 | 1.81e-06 | 784000 |

biological target: T2, recombinant human transferrin receptor …; assay: ELISA on plate-coated recombinant human TfR1 (CD71); fit: specific binding with Hill slope
Description: as §1

| Binder | Bmax [% max binding] | Kd [pM] | h |
| --- | --- | --- | --- |
| B2 | 94.2 | 8.18 | 1.35 |
| B3 | 92.9 | 9.64 | 1.43 |
| B4 | 95 | 9.58 | 1.2 |
| B5 | 95.7 | 9.73 | 1.22 |

biological target: T4, recombinant cyno transferrin receptor protein (Sino Biological 90253-C07H) (cyno, UniProt H9EXL1 89-760 (rhesus entry)); assay: ELISA on plate-coated recombinant cyno TfR1 (CD71); fit: specific binding with Hill slope
T4 construct: Bought protein coated on ELISA plates; also called recombinant cyno TfR1; cynoTfR1
Description: as §1

T4 sequence (chain, as listed by the source C07H C07H): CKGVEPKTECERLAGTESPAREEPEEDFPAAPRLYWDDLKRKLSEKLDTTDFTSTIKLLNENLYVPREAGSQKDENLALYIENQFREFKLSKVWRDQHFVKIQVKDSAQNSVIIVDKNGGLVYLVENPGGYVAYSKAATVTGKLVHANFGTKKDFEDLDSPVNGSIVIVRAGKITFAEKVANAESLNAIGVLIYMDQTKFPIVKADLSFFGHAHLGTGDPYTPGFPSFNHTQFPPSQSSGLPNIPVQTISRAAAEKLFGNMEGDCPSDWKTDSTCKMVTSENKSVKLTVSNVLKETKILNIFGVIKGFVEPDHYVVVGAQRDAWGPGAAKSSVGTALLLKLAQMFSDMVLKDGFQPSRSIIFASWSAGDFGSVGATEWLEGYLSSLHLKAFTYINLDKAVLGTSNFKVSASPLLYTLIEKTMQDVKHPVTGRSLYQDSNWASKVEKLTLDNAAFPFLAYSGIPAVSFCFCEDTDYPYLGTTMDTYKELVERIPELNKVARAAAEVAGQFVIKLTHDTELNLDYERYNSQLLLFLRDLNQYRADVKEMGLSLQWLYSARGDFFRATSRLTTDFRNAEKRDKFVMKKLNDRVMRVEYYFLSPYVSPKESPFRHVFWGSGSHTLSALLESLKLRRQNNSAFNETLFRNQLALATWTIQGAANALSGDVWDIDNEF

| Binder | Bmax [% max binding] | Kd [nM] | h |
| --- | --- | --- | --- |
| B2 | 93.1 | 0.012 | 1.56 |
| B3 | 94.2 | 0.0127 | 1.58 |
| B4 | 94.3 | 0.0092 | 1.35 |
| B5 | 95 | 0.011 | 1.51 |
| B1 | 94.3 | 0.0114 | 1.74 |

— patent US20200325237A1 (AVIDITY BIOSCIENCES, published 2020)
